Assay: soluble on expression in E. coli; label from the status in PepcDB or PDB records
With “MAHHHHHHMADAADTLLLSLEVEAAAARNAELSQTIEMLQDEVLRLRRANASLLACDARHCPKVSLQPVETPSATADVSRDESSAAADAREVFVILDDLLFEMADIRSRIILDERVDLTPRAFDSEATVAAHARRCLEEARKLKEAFVVKQHSTAAQVSELRRALGEQAEANQKQTAASALQCAMLERKYDELKRRYDEAVSRQDELVLDGVIQSPSQMLPRS” the “soluble on expression in E. coli” value was “soluble”. For “MAHHHHHHMADGAAMSLSGQRIPLLKPTLSKWSRQLRSDIYDELLKLPLRYALHDFRTLQAHIHAVPATATNASCTAAAGERLPPGVYHASSGLSSASPDAPAYYAVAGRDSAVGYAPPLGPADPVDVIPFFVHRSSNGHLPGKVYSMNAKTLMPAFYMRIQNIEGDMFRFEEELMKIFPTKKIFVRSHSVYVYNVNLDGRAVLHHWLLGLGF”, the “soluble on expression in E. coli” value was “soluble”. With “MAHHHHHHMAEEGSGLHQFWNTQPVPQSSIDAADTVGPLEAAGTVDDVPTDPVAIASTLEWWSPDMDNKDDVRAIYELLRDNYVEDVESMFRFNYSEDFLRWALTPPGYHSSWHVAVRRKRDQMLMGFVSGIPVTMRMGAPKKVLQKNKTTEEKEQGPEEKNNDHKSQAEELYLEPRKICEINFLCVHKLLRAKRLAPILIKEVTRRVHLMNIWQAVYTAGRLLPTPFATADYYHRSLNPEKLVAVGFSAIPQQYQKFQNPLSMIKRFYELPAKPKTRGLRPMEPKDAPQVANLLRKKLATCDVAPVFTDEEVAHYTLPREGVLMSYVVEREVSGGGGGGRVDSSRGKQNDAGTQKQITDFFSFFSLPSSIIGSSKHSVLNAAYVFYSANTTISLVHLMSDLLIVAHQQGFDVCNVVNIMDNGDYLSELKFGRGDGNLHYYFYNWSYPIVQPSDVGLFML” the “soluble on expression in E. coli” value was “not soluble”. For “MAHHHHHHMAISATGTLAVLKVYQLTDAAARLSRAEVDAALEELMGLRVNDSLVQYLSYCYVPPHRVVLVMQYVPGGTLREMKSRYGRKLPLTAVRRNVASMLRGLAHLHGRGVIHGRLCPENVMVGVEGRWRLKGMLLGAAPLIMHQETYYVSPEVAAGGAKTAANDVYALGLLLLAMLTDSHPWQWSANAALDRSRKELDSLLADSTAFREALRNGLLTPVPTPADTDETLRTVLEACLRTAPGDRPTALRLQELRCDRTS”, the “soluble on expression in E. coli” value was “not soluble”. With “MAHHHHHHMANYQQQYTNAEYTLPNFFETASTVAKVLTPGGRTPTVLAVDVSGQPLLPPPPPESDFAVPEPGQLEKLLCAYVGPSHTLGLSPKQLFDEEIRARNLEMEERKKEMRAITEQYERELRECMMESEQRSVVEDARRAIDLADREALEERKRPLRMYLNHNIIPLLSKGLVEVCKRRPVDPVDFLAEWLMLHNPHDDSCFEL” the “soluble on expression in E. coli” value was “not soluble”. For “MAHHHHHHMCAPLYVSPAVQELAQLNSEAERLMLKRAWCVHTKAHLLRELPWAARDVAAYRVALREALQSFTESQQDAFLIDVVYAQFVCAEGGVLRACVQHALFLDLTYDVRLQQWTLVPLHWNIFTTSAGALLLTLQSVLAGPHAQTPCTPPAAPATAARAPLIAHSRAHGTVDSASPLPEASTPASFVRVDPHDREALHRFMRLAFEQEGLSGELHASNRLVCAVVMDTFAIQLQSLQQSFFTGGGLGRLVEMEVRPGTLISFHLSLPELFVPSAPVAHVKMTVAGGTVMLECVRGTDLSTRRVTLPLGTSSLVASGAVGVNTATWKSSMTVVDMEALLWQCVCASAPS”, the “soluble on expression in E. coli” value was “not soluble”. For “MAHHHHHHMCAWNSAIHAYPTAIAPMLVRRPCHAAMNAYTAVASCATALRLSRSHLHAHMLLLLVLTRQRCNLFTLRSDTFLKAVVQMLFSPALLSTLRSAAGVSARSAPPALRQRVAAIA”, the “soluble on expression in E. coli” value was “not soluble”. With “MAHHHHHHMCYDCATSSSLVTTILNGMHVFNLDERFYGANLAAGLSASNVESYPYHTIGEEPLMSSCFFNAGQLFAVGSSCGSVTVVSRRSRALTSCYATPDSFPIRSLSEIPAQPNCLLTCTEQGAAIVDVERSQLRMSLANPAAGRAVAAVPLQLHTFVVANYDGKVLLYDTRYRSSPSSVLSLPDQITCLAVSRDTPEVCVGTVGGRVFTLRCAEGPQREQAFGMSNRRSPVRCVAMDNGRIAAGDLAGRLALIDTADVPDPTVYWSAETLLRLPRPSGRARHA” the “soluble on expression in E. coli” value was “not soluble”. For “MAHHHHHHMDKKRSIVKKPERGSFLLDHNSECTPIKNDYLKCLKEHNNDHVSCREYSKEYFICRMDKNLLERQSLNDLGFSENETNHESRIKHFKDVYSYNVYNETMESFPKGRALKRTDTASGAVFVEEKLTQGKRDNKADMKPARGDDFLLLNLRNDKEGEQKINGKVFEITQEKKIAVKRKEEEGYLAGKEYIKTLVEKKKRHPLFSYNIFKSSNT”, the “soluble on expression in E. coli” value was “soluble”. In the case of “MAHHHHHHMDLFSIASNLQQIAIGGVNFVNSKLRKKSATAECNYITYIVIGENEKQPYDTNIFFLPFKICGKIKLEEFKEFFPFKDNVIFRFKIPVSDLIDVINEGIVNHAPLMREDSNERNQVKHIISDENEIKNILRQDQFSHLWVDITSEEAYIPFYNGNIVVKVLFI”, the “soluble on expression in E. coli” value is reported as “not soluble”. With “MAHHHHHHMDNSIKIKSAFLKENVGVKITGPCDEGFGLVMVPHIIINVDTRNTDIQLGKKSSEINYGIKLRKKGKDEYEEKVGIDLLKNVCETGKNFKFVAYIKGDELIIKWKVIEEGNIPIDIKKFKIKRMSPPITSIQVFSSMSDEKSFVLENKNYVVTNNMPEKCEALATNCFLSGNIDIEKCYQCSLLVENDSKSDVCYNFISRENKEKLNEERFKVKGSTEYEESVESELKGAIDLLISSFYKSDGENGENVLISFEDLNSTLEDDIINFCSLLKLVDLSGTFMNHQIGTTADAFNNIVKLLKEHKEEDEFVLRTKLRNPALCMKNVDDWVKSRCGLLTSDDSYVVIKKNSDTNGKNENNESNDEEYDGVIDLSTNENGNVKSIQFNDDIYCNDDYCNRWKNENNCISKIGVEDQGNCASSWAFASKLHFETLRCMKGYDHLGISALYLTNCSKGKISKRCTEGGNPSEFLEIVSNSGFLPTEFDYPYFYALVENSCPSGLNKWINLWEDVKLFDYKYEPNSIGSKGYSVYKSEMFKDNMDEYVKMIKSEIKNKGSVIAYINAQSVLTYDFNGKNILNMCGSKTTDHSINVIGYGHYKNKEGEEKSYWLVRNSWGYYWGDEGNFKVDMYGPSNCNYHFINTVLVFNIDIPMMNNNENNKKGLYNYFPKYTHEFYHNFYDQNFGSDNKISLINSNGSNKNDVNNAYTVHGQSGETEVQPSQLRSTANQDSNRGAVTSDPLRTQPETTSTSVKKMDVFQVLKHVKNSKIKVGLIKYDNDDEIGAHHSCTRAYSFDPEKYDECVEFCRKNWEQCKDKPSPGFCLTKLDESKGCFFCYV” the “soluble on expression in E. coli” value was “not soluble”. In the case of “MAHHHHHHMDPLLLGTSAGLERNCTVLFSHLTALCGTKPAGEPHNPLQVHLRVDDGHRDTALQHIKVLYDVAVRHNPRTSVTVVPLAPLEYYETPNRNTNSREGHKLPLFTASLMTPNCGFNPVYKGVAVGGTFDRLHGGHKLLLTTALLHATQVLRIGVTVSTMLTTKIHADLIEPFEVRCAAVTKFAHLLRPDLGLEVAGIADRAGGADSDPSLEALVVSPETVGALPSINTARLSVGLKPLECVLVPYVGVCDDEESRVSSTNIRKRLCELST”, the “soluble on expression in E. coli” value is reported as “soluble”. With “MAHHHHHHMDSEKNSPLEYQETMNDLGEDIEDMEAQSINHGEAKMSVDIKSGKGDKGGEEVDVADAENVESNADNALYIYSTDSAKNILKENLEDYLKQLDFYKSNPKCKIDPAIYMEGTEEVENYVVKEKILITTYYQYIDMYESSIDVEEDLEREEIVYVEVPKYIIKYNPKVITNYIEKTIEVPSGEEIKRPVYKKLNVPYVVPHVVENETQVVLKKIVQPEIHTSNEEIEVEVQKYVPRLVPVNVYVPRYFGLSAKTTDEVEESVHYADLTQEQTDYLMKELNPHLDDLKKFNEEQLERMNEYIRESAQQAESHDLNPPKPELVSYDLDGSIQTLDYSDFTQFKEICQRELTC” the “soluble on expression in E. coli” value was “soluble”. In the case of “MAHHHHHHMDVEERTRRCSSLGLAVRNLPRDTASSFVHKFFEDHVGCVQEVMMHSSRPNQSRNIAAPNTNGVDQGKRGNDDNDPPASFGLSGRRDGNSSSGIAVKTCSNDADGNTLCLVFFSAAECVRLAKLLYMRRPELFNVLGVVDGKELRLTIPSKLIRLSRTAHAHCDDGDNTRSKKSSQGEEDTPKGDAEKNDAGT”, the “soluble on expression in E. coli” value is reported as “not soluble”. For “MAHHHHHHMEEAKIEAALHICNLLPAHVFEETIKLLSKVDQNLTNNILINKEGPIKIKFDSQQNKHYLGNMFNKEKDSYRSPYSNRYYPEHYPNGYIPSESLRMLEMLYNEMYDRYRKAYYIGGLSSVYLWPNPIEEGFVACFLIKKKENYDPCTSLTWEGTHLIQVSITHARVYYQISTTVNFFIKKKNEMTLSASINKALETPKKVSNVNLVKDKYFHMHNMGKMIEGIENSLRKSIEYIYLPKMNDILNSIRMDDSFASAWHNADRKAAQNLRTISSNIALSRGSVQDELRLKLKGRSFDAGAEYSLRT”, the “soluble on expression in E. coli” value was “not soluble”. With “MAHHHHHHMEFNRSQAAGNGKYVELFAQSYSGPVPKPLPPCTEPTPDEQYRQLMEEKKNEIGEREQRHAENTAGASGSNVDSSNVVGLFSNAATKLRNVAQQVTLKIERASTEVSSATGAAVRQVERQLNVDRFLSNFPELGAMGEILLADYACTAINGGQRVSGHMHITKNYLCFSAPGSSVINQLATAVLKESGVGSDNNPVLGIRQIIPLTEIACILLSVALETVDHRPPFFLPLPASYVRPTGLQIYTTKQQLFQFLAFESIAAKAGSVFTDAVKGLPIQRAYNYLDHAWRASTSVPLPGVNYAS” the “soluble on expression in E. coli” value was “not soluble”. In the case of “MAHHHHHHMEGDISSSAFVCGFTAHRAHPLSPISDIRDLCVPRTSTPSASSHALAQALSFPRRPLPHRLLASCLLITTTNRFQAHCSRSAATQPPPPLPCGTTTEREYGWDGLAVFLSADSRVFRSPFSTIVSRFSPFVAAMSDRDVPASMTRTCAPPKAHFLFCSTDARNAAPASNGDVAKLPAPKKPISAPLTPFQSPVDTHRDRHSSRHASPPRQLGRPLPPTQPSFSDVAKRMGSFNDMCEANSLLSSHVRLGEMSTLGISASTSTIPAGSSGSTTSLHWLRIAEDRVMPHPSSTKPAPAALQRNAEYVLERWVEQKVHRTAAMDDAMMKVAAAFDELYA”, the “soluble on expression in E. coli” value is reported as “soluble”. In the case of “MAHHHHHHMEGKKCFYITEKGKKQNFRNIKLITFDLDHTIWNIDGLLNYADKECYEYMKKNYRRLYDYLQEEYQLSITNLVKQLLENKIEDNNDGVQTLTNMRIDALKFLAKKTNYDEGKFVSEIQELWKEKKNDVHLFISPGTLEYLRELKRRGYTLGAITNGDSDVNGIKFLNEIFTFVIRSMDYNHSKPSVEIFNIAENILKKKNFHFEIHQWMHVGDDVYTDIMGAKNKNINCAWITMFRDGSEVPPNDWYPYLKLKLEENGDSHLSQYDPFADGLFSRFRRRDVVLPYEYIDIEIRHCRDLDAILA”, the “soluble on expression in E. coli” value is reported as “soluble”. With “MAHHHHHHMEKQCPVCYFNLPDPESAIAPYDTELNYFMWGPGFEWQPEPEVKNILVEEENFEESEQSEESVAGLEELDEKVDRSEAKTMFNEKSSNGKVSVEDASQNARKLGLAPSSLDEKKVRDLYGDSLTYEQYLEYLAMCVHDRDNMEELIKMFSHFDNNASGFLTKNQMRNILTTWGDALTEQEANDALNAFSSEDRIDYKLFCEDILQ” the “soluble on expression in E. coli” value was “not soluble”. For “MAHHHHHHMEKTIITLLPVVEKAPKENMERVLDVFRHYLKRYGADHYIYNAVMQAAAFAKNYEQAEQLFKEMETLGLEPNAQSYVNMMLAAKLCGLPPEKSEAYFKRAVKDGAMQSVMRMDTEFRMWMDQLDRLGSFTASSGYLSVNEEGAKPMPRDMWAIWGWHRSESKFISRRDLIMQQVRARVHSGKELVGTVYTKTRRQPWAKFNGMLRHDYNGPSYRAPTIFPDAPEYTNEAGHKAF”, the “soluble on expression in E. coli” value was “not soluble”.
